Experiments:
human IL-1R = biological target: T1, human IL-1R (Homo sapiens, UniProt P14778); test: HEK-Blue IL1R cell-based IL-1R signaling reporter assay (SEAP, Quanti-Blue, absorbance 655 nm)
T1 construct: Human embryonic kidney (HEK) cells expressing murine and human IL-1 receptor proteins; host or cells: HEK-Blue IL1R (HEK293-derived reporter cells)
T1 sequence (P14778 18-569): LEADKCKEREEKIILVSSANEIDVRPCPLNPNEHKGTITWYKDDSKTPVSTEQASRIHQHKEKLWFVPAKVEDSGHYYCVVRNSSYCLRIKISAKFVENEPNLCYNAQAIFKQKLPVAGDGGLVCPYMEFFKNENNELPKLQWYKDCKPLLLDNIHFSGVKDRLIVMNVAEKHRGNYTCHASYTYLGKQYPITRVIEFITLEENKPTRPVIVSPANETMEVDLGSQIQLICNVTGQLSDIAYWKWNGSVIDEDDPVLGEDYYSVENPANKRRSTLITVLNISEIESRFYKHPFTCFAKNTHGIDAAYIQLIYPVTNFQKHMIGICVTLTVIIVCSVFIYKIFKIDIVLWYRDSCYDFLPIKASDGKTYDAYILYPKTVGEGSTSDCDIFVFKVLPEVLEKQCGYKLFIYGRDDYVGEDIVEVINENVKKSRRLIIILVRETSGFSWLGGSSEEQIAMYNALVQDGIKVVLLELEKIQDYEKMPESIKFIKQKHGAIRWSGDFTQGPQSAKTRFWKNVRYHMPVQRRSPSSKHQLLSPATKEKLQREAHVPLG
Procedure: HEK-Blue IL1R cells: Human embryonic kidney (HEK) cells expressing murine and human IL-1 receptor proteins, as well as expressing secreted embryonic alkaline phosphatase under NF-kB/AP1 transcriptional control (HEK-Blue IL1R, InvivoGen), were maintained in DMEM with 10% FBS, 2 mM glutamine, 50 U/mL penicillin, 50 μg/ml streptomycin, 100 μg/ml Normocin, 200 μg/mL hygromicin B, 1 μg/mL puromycin, and 100 μg/ml Zeocin. Heat inactivated human serum tested negative for background alkaline phosphatase activity. In initial experiments, HEK-Blue IL1R cells were treated for 24 hours with 0-100 ng/mL recombinant human IL-1β (Peprotech) in the presence of 0-200 ng/mL anakinra. In subsequent experiments, cells were treated with 32 pg/mL IL-1β for all conditions. After 3 hours, saturating concentrations (10 μg/mL) of anakinra were added to the cells to block further IL-1R signaling, and endpoint supernatants were collected at 24 hours. Supernatants (20-40 μL) were mixed with prewarmed QUANTI-Blue reagent (160 μL, InvivoGen) and incubated at 37° C. in a Spectramax M3 multi-mode microplate reader (Molecular Devices). Absorbance at 655 nm was recorded every 5 minutes for 3 hours via kinetic read. The basal absorbance of untreated HEK-Blue IL-1R cell supernatant was subtracted from all samples to normalize for non-specific signal.
Given that both IL-1β and IL-1RA were elevated in FIRES patient serum, experiments were conducted to determine whether the elevation translated into a change in overall IL-1R signaling activity. To develop a sensitive functional measurement of IL-1R signaling activity, a cell based assay using HEK-Blue IL1R cells was developed and optimized. These cells express human IL-1R and respond to IL-1R signaling-induced NFκB activity by producing secreted embryonic alkaline phosphatase (SEAP), which dose-dependently results in increased absorbance of 655 nm wavelength light upon incubation with Quanti-Blue substrate (FIG. 2A).
To investigate this possibility, the antagonistic activity of FIRES patient CSF-derived IL-1RA was assessed using an in vitro HEK-Blue IL1R cell-based assay. […] Thus, HEK-Blue IL1R cells were treated with 32 pg/mL IL-1β in the presence of either 50% dialyzed FIRES patient CSF containing 65 pM patient IL-1RA or 50% dialyzed CSF derived from NPH patients that was supplemented with recombinant IL-1RA prior to dialysis to reach concentrations of IL-1RA equimolar to that seen in FIRES patient CSF. The percent inhibition of IL-1R-induced SEAP was then compared in cells treated with 50% CSF containing 65 pM FIRES patient IL-1RA vs. 50% CSF containing 65 pM anakinra.

[1] = IL-1RA ELISA in FIRES patient serum and CSF before and after initiation of anakinra treatment; type: in vivo, human; conditions: detects the exogenous IL-1RA
Procedure: IL-1RA enzyme-linked immunosorbent assay: The human IL-1RA/IL1F3 Quantikine ELISA kit (R&D Systems) was used according to the manufacturer's instructions. Serum and CSF samples were diluted (1:2-1:5000 in assay diluent) and duplicate samples were measured against a standard curve (31.3-2000 pg/mL in duplicate). After chromogen development, absorbance was measured on a Spectramax M3 multi-mode microplate reader (Molecular Devices). Absorbances falling outside the range of the standard curve were reanalyzed at different dilutions.
To determine whether there was a diminished level of endogenous IL-1RA in FIRES patient serum or CSF, IL-1RA levels were measured by enzyme-linked immunosorbent assay (ELISA) in FIRES patient serum and CSF before and after initiation of anakinra treatment, as well as in serum from healthy controls, CSF from normal pressure hydrocephalus patients, and serum and CSF from patients with other seizure disorders. […] IL-1RA was strongly elevated in FIRES CSF compared to normal pressure hydrocephalus controls and patients with ESES or focal epilepsy (FIG. 1C). CSF IL-1β levels, which were only rarely detectable in healthy controls, were also elevated in among FIRES patients (FIG. 1D). […] This finding also was consistent with reports of elevated IL-1RA following seizure activity (Lehtimaki et al., Neuroimmunomodulation 17(1):19-22, 2010).

children with FIRES = conditions: Kenney-Jung et al. 2016; cited from earlier work

suppression of the measured increase in IL-1R activity elicited by serum plus IL-1β (human IL-1R; 32 pg/mL IL-1β in the presence of 10% serum (HC, FE, FIRES, ESES), all conditions, FIG. 3E): at least partially suppressed
IL-1R signaling in IL-1β treated HEK cells compared to unsupplemented NPH CSF (human IL-1R; 32 pg/mL IL-1β, 50% dialyzed NPH CSF supplemented with 65 pM, FIG. 5B): significantly less IL-1R signaling
inhibition of IL-1R signaling in dialyzed CSF (human IL-1R; CSF dialyzed against DMEM/F12, 100 Dalton cut off membrane, FIG. 4D): restored anakinra-mediated inhibition
blockade of IL-1β-induced IL-1R signaling (SEAP) (human IL-1R; HEK-Blue IL1R cells, co-treatment with IL-1β, FIG. 2B): competitively blocked
Substance: anakinra: recombinantly-produced human IL-1RA
inhibition of IL-1R signaling in undialyzed CSF (human IL-1R; media containing 50% control CSF or artificial CSF, compared to complete media, FIGS. 4A-4C): did not show inhibition of IL-1R signaling
CSF level of IL-1RA following treatment ([1]; FIRES patient CSF): further increased
serum level of IL-1RA following treatment ([1]; FIRES patient serum): further increased
clinical response of seizure disorder (children with FIRES): some children with FIRES respond

— patent publication US12216128B2, “Methods for guiding therapy decisions in seizure disorders” (Mayo Foundation for Medical Education and Research, priority 2018, dated 2025)
